Assay results reported in US20200340992, “DNA APTAMER […] BINDING TO ESAT6, AND USE […]” (MD APTUS INC., published 2020).

Tests used:
[1] = target: ESAT6 (early secretory antigenic target 6 kDa) (Mycobacterium tuberculosis H37Rv, UniProt P9WNK7 P9WNK7:1-95); assay: fluorescence of Cy3-aptamer bound to ESAT6 on magnetic beads; 20 mM Tris, 50 mM NaCl, 5 mM KCl, 5 mM MgCl2, pH 8.0; details: label: Cy3
Procedure: 400 pmole of ESAT6 was mixed with 10 μL of magnetic beads, and then incubated in 100 μL of a binding buffer (20 mM Tris, 50 mM NaCl, 5 mM KCl, 5 mM MgCl₂, pH 8.0) for 1 hour. To separate unbound ESAT6, washing was performed twice with a binding buffer. Subsequently, the resulting mixture was incubated together with various concentrations of a Cy3-labeled aptamer, and an unbound aptamer was removed by washing. The amount of Cy3-labeled ssDNA aptamer bound to the magnetic beads with ESAT6 immobilized thereon was measured by fluorescence measurement (1420 Victor Multilabel counter, PerkinElmer, USA) by separating only Cy3-labeled ssDNA bound to ESAT6. As a result, as shown in FIG. 3 and Table 2 below, the Kd value of the DNA aptamer having a EG11(44) base sequence was measured.

TB7.7 = target: T1, TB7.7 (UniProt P9WJ11 P9WJ11:1-81); assay: electrochemical impedance specificity test; 10 pM protein in PBS
T1 sequence: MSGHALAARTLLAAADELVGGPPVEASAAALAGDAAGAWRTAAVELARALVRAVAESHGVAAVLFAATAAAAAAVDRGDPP
Excerpt: (§1) At this time, each protein was mixed at a concentration of 10 pM with PBS and used for detection.

CFP-10 = CFP-10 (UniProt P9WNK5 P9WNK5:1-100); assay: as above
Chain of CFP-10 (P9WNK5 whole entry, one chain of several): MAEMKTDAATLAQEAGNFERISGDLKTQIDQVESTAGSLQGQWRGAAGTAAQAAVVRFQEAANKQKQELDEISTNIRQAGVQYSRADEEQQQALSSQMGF
Excerpt: as §1

Chain of ESAT6 (early secretory antigenic target 6 kDa) (P9WNK7 whole entry, one chain of several): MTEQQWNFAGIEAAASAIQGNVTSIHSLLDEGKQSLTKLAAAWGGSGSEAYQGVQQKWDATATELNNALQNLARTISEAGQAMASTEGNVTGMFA

## CGAGGTAGCTTACCCGCTTATGTTCACTGTGGGTTGCTGGCTCG (ssDNA) [EG11(44)]
[1]
  Kd: 31.4 nM

## CGAGGTAGCTTACCCGCTTATGTTCACTGTGGGTTGCTGGCTCG (ssDNA) [EG11(44) unlabelled]
TB7.7
  binding result: no binding
CFP-10
  binding result: no binding
